Reference: US20230034906A1 (TRINOMAB BIOTECH, published 2023)

Molecular target: T1, HCMV gB glycoprotein of standard strain Towne (gB_Towne strain) (human cytomegalovirus, strain Towne, UniProt F5HB53 25-700)
T1 construct: also called antigen protein gB0049
Experiment: SPR (Biacore), antibody captured on anti-human IgG (Fc) CM5 chip, gB glycoprotein as analyte

B1: TRN1019 (antibody, V domains shown)
VH: QVQLVQSGAEVKKPGESLKISCKGSGYTFTNYWIGWVRQMPGAGLEWMAIIFPRDSYSAYSPSFQGRVTISVDKSISTAYLHWSSLEASDTAVYYCAIYNDLRSGNSWGQGTPLIVSS
VL: DIQMTQSPSSLSASVGDRVTITCRASQSITKYLNWYQQKPGRAPKLLIHTTSTLQSGVPSRFSGSGSGTDFTLTISSLQLEDFGTYYCQQSFSTLWTFGQGTKLDIKR
notes: Fully human antibody; kappa light chain
binding result: binds
